From paper PMC3041754, “Functional Mutation of Multiple Solvent-Exposed Loops in the Ecballium elaterium Trypsin Inhibitor-II Cystine Knot Miniprotein” (PLoS ONE, 2011)
Read-outs that look alike come from different tables or passages of the source. Where a SMILES comes first, the peptide text is derived from it. Bridges are numbered along the chain shown (N, C = ends). Where no end group is shown, it is not given here. The star is where a group is joined. DOTA = O=C(O)CN1CCN(CC(=O)O)CCN(CC(=O)*)CCN(CC(=O)O)CC1

How the values were obtained:
[1] = system: integrin receptors expressed on U87MG glioblastoma cells; assay: Competition binding with 125I-echistatin to U87MG cells; design: species or system human; conditions: competition with 0.06 nM 125I-echistatin, 2×10^5 U87MG cells, IBB, room temperature, 3 h, gamma counting; average ± SD of experiments on three separate days
Experimental: Competition binding assays were performed as previously described, [60] to measure the relative binding affinities of engineered knottin peptides and echistatin. Briefly, 2×10^5 U87MG or K562 cells were incubated with 0.06 nM ^125I-labeled echistatin and varying concentrations of peptides in IBB at room temperature for 3 h. The cell-bound radioactivity remaining after washing was determined by gamma-counting. Half-maximal inhibitory concentration (IC50) values were determined by non-linear regression analysis using KaleidaGraph software (Synergy Software), and are presented as the average of experiments performed on three separate days.

[2] = Serum stability in mouse serum (radio-HPLC); type: in vitro ADME; conditions: 50% mouse serum, 37°C, reversed-phase radio-HPLC (Vydac C18), area under the entire peak
Experimental: (§1) Aliquots containing up to 400 µCi of ^64Cu-DOTA-knottin 3-4A were incubated in 50% mouse serum for up to 24 h. At various time points, samples were mixed with an equal volume of 99.9% water/0.1% TFA, further acidified with ∼1% (v/v) TFA, and centrifuged to remove precipitants. Soluble fractions were filtered with a 0.2 µm microcentrifuge filter (Corning Costar Spin-X filter) and analyzed by reversed-phase radio-HPLC using a Vydac C18 column. For metabolic stability analysis, anesthetized nude mice bearing U87MG tumor xenografts were injected with 200–400 µCi of ^64Cu-DOTA-knottin 3-4A via the tail vein, and were euthanized at 1 h post injection. Tumor, kidney, and liver tissues were homogenized with a mortar/pestle in 1 ml DMF. The lysates were acidified, centrifuged, and filtered using a 0.2 µm Costar Spin-X microcentrifuge filter to isolate soluble metabolites. Filtrates were injected onto a Vydac C18 column and analyzed by reversed-phase HPLC. Fractions were collected every 1 min and analyzed by gamma counting to determine the counts per minute (cpm). Urine samples were collected 1 h post injection and were also analyzed by radio-HPLC. The intact radiotracer elutes at approximately 15 min, and the major hydrophilic metabolites and free copper elute with the column dead volume.

[3] = system: U87MG tumor xenografts; assay: MicroPET imaging in U87MG xenograft mice; type: in vivo, mouse
Experimental: (§2) Animal procedures were carried out according to a protocol approved by Stanford University Administrative Panels on Laboratory Animal Care (APLAC Protocol 11580). U87MG glioblastoma cells were maintained at 37°C/5% CO2 in Dulbecco's Modified Eagle Medium, 10% heat-inactivated fetal bovine serum, and penicillin-streptomycin (all from Invitrogen). Female athymic nude mice (nu/nu), obtained at 4–6 weeks of age (Charles River Laboratories, Inc., Wilmington, MA), were injected subcutaneously in the right or left shoulder with ∼10^7 U87MG cells suspended in 100 µL of PBS. Mice were used for in vivo imaging studies when their tumors reached approximately 10 millimeters in diameter.
U87MG tumor-bearing mice (n = 3 or more for each probe) were injected with ∼100 µCi (∼0.5 nmol) of probe via the tail vein and imaged with a microPET R4 rodent model scanner (Siemens Medical, Knoxville, TN) using 5 min static scans. Images were reconstructed by a two-dimensional ordered expectation maximum subset algorithm and calibrated as previously described. ROIs were drawn over the tumor on decay-corrected whole body images using ASIPro VM software (Siemens Medical). ROIs were converted to counts/g/min, and %ID/g values were determined assuming a tissue density of 1 g/mL. No attenuation correction was performed. For the blocking experiments, mice were co-injected with 330 µg (∼0.5 µmol) of unlabeled c(RGDyK), a pentapeptide that binds to αvβ3 and αvβ5 integrins, [62] at a similar receptor binding site as the engineered knottin peptides.

[4] = Biodistribution in U87MG xenograft mice (gamma counting); type: in vivo, mouse; conditions: female, athymic nude (nu/nu), mouse, iv, total radioactivity; for tissue to tissue ratio at 4 h: U87MG xenograft mice
Experimental: as §2
(§3) Anesthetized nude mice bearing U87MG tumor xenografts were injected with ∼50–100 µCi (∼0.25–0.5 nmol) of ^64Cu-DOTA-knottin 3-4A via the tail vein, and were euthanized at 1, 4, and 24 h post injection. Blood, bone, brain, heart, kidney, liver, lung, muscle, pancreas, skin, spleen, and tumor tissue were removed and weighed, and their radioactivity levels (counts per minute) were measured by gamma counting. The radioactivity uptake in the tumor and normal tissue was reported as the percent injected dose per gram (%ID/g) of tissue and represent the mean and standard deviation of experiments performed on three mice. For each mouse, the activity of tissue samples was calibrated against a pre-measured aliquot of the radiotracer and normalized to the whole bodyweight and to the residual radioactivity present in the tail. To test integrin-targeting specificity, U87MG tumor-bearing mice (n = 3) were co-injected with ^64Cu-DOTA-knottin 3-4A and 330 µg (∼0.5 µmol) of unlabeled c(RGDyK), and biodistribution of the radiolabeled peptide was determined 1 h after injection.

[5] = system: U87MG tumor xenografts; assay: as above; type: in vivo, mouse
Experimental: as §2, §3

[6] = In vivo metabolic stability in U87MG xenograft mice (radio-HPLC); design: species or system mouse
Experimental: as §1

[7] = system: MDA-MB-435 melanoma xenograft; assay: Tumor uptake in MDA-MB-435 melanoma xenograft model; type: in vivo; conditions: lower αvβ3 integrin levels, data not shown
[8] = system: integrin receptors expressed on U87MG glioblastoma cells; conditions: read-out: IC50, competition binding of 125I-echistatin to U87MG cells; cited from earlier work
Experimental: The engineered knottin peptides were tested for their ability to compete with ^125I-echistatin for binding to integrin receptors expressed on U87MG glioblastoma cells, which express ∼10^5 αvβ3 integrin receptors per cell. Echistatin, a polypeptide found in snake venom, binds to multiple integrin receptors with high affinity, [27] and was used as a positive control. […] Both engineered loops were capable of binding to integrins with high affinity, as confirmed by measurements performed with knottins containing scrambled RDG control loops. […] In one example, c(RGDyK) dimers and higher order oligomers have been created by chemical conjugation through addition of a glutamate branching residue.

[9] = U87MG xenograft mice, summary of imaging and biodistribution

## ECESGPCCRNCKFLKEGTICKRARGDDMDDYCNGKTCDCPRNPHKGPAT (disulfide 2-11, 7-32, 8-37, 20-39 (inferred)) [Echistatin, reference compound]
[1]
  IC50: 4.9 ± 0.1 nM

## CSCC[C@@H]1NC(=O)[C@H](CC(=O)O)NC(=O)CNC(=O)[C@H](CCCNC(=N)N)NC(=O)[C@H](C)NC(=O)[C@H](CCC(=O)O)NC(=O)[C@H](CCCNC(=N)N)NC(=O)[C@@H]2CSSC[C@@H]3NC(=O)[C@H](CO)NC(=O)[C@H]([C@@H](C)O)NC(=O)[C@@H]4CCCN4C(=O)[C@H](C)NC(=O)[C@H](Cc4c[nH]c5ccccc45)NC(=O)[C@H](CC(=O)O)NC(=O)CNC(=O)[C@H](CCCNC(=N)N)NC(=O)CNC(=O)[C@H](CCC(N)=O)NC(=O)[C@@H]4CCCN4C(=O)[C@@H](NC(=O)CNC(=O)CN4CCN(CC(=O)O)CCN(CC(=O)O)CCN(CC(=O)O)CC4)CSSC[C@H](NC(=O)CNC(=O)[C@H](C)NC(=O)[C@H](CC(C)C)NC(=O)[C@H](CSSC[C@@H](C(=O)NCC(N)=O)NC(=O)[C@H]([C@@H](C)O)NC(=O)[C@H](CCCNC(=N)N)NC(=O)[C@@H]4CCCN4C1=O)NC(=O)[C@H](CC(=O)O)NC(=O)[C@H](CO)NC(=O)[C@H](CC(=O)O)NC(=O)[C@H](CCC(N)=O)NC(=O)[C@H](CO)NC3=O)C(=O)N[C@@H](C(C)C)C(=O)N2 [^64Cu-DOTA-knottin 3-4A, metal not drawn] ({DOTA}-GCPQGRGDWAPTSCSQDSDCLAGCVCREARGDMPRTCG-NH2; disulfide 2-24, 14-26, 20-37)
[2]; 4 h, read-out: intact probe remaining in serum, 4 h
  remaining at 4 h: 55%
[2]; 24 h
  intact probe remaining in serum, 24 h: ~30%
[2]; 24 h, read-out: intact probe remaining in serum, 24 h
  remaining at 24 h: 30%
[3]; U87MG xenograft mice
  kidney uptake, microPET, 1 h post injection: 10-12 %ID/g
  kidney uptake, microPET, 24 h post injection: 3–4 %ID/g
[3]; U87MG xenograft mice, 1-24 h
  liver uptake, microPET, throughout the imaging study: ~2 %ID/g
[3]; [9]
  kidney uptake, 1−4 h post-injection (summary in discussion): 8–12 %ID/g
  kidney uptake, 24 h (summary in discussion): 2–4 %ID/g
  liver uptake (summary in discussion): 1–2 %ID/g
[3]; U87MG xenograft nude mice, tail vein ∼100 µCi, n = 3, mean ± SD
  tumor uptake, microPET, 1 h post injection: 3.51±0.83 %ID/g
[3]; U87MG xenograft nude mice, tail vein, n = 3, mean ± SD
  tumor uptake, microPET, 24 h post injection: 1.97±0.24 %ID/g
[3]; co-injection of 1000-fold molar excess of unlabeled c(RGDyK) (330 µg), p<0.05
  tumor uptake, microPET, 1 h post injection, blocked: 0.53± 0.03 %ID/g
[4]; calculated from 1 h and 24 h tumor radioactivity, read-out: radiotracer washout rate from tumor, biodistribution
  tumor washout rate: 0.06 %ID/g
[4]; tumor / muscle, read-out: tumor-to-muscle (T/M) ratio, 4 h post injection
  tissue to tissue ratio at 4 h: 31 ± 7
[4]; tumor / whole blood, read-out: tumor-to-blood (T/B) ratio, 4 h post injection
  tissue to tissue ratio at 4 h: 27 ± 3
[5]; U87MG xenograft mice
  muscle radioactivity, biodistribution: < 0.4 %ID/g
[5]; U87MG xenograft mice, 1-24 h
  heart radioactivity, biodistribution, throughout the study: ~0.3 %ID/g
[5]; U87MG xenograft mice, n = 3
  liver radioactivity, biodistribution, 1 h post injection: ~1 %ID/g
  liver radioactivity, biodistribution, 24 h post injection: ~2 %ID/g
  lung radioactivity, biodistribution, 1 h post injection: ~1 %ID/g
  lung radioactivity, biodistribution, 24 h post injection: ~0.6 %ID/g
[5]; U87MG xenograft mice, n = 3, mean ± SD
  kidney radioactivity, biodistribution, 24 h post injection: 2.67±0.22 %ID/g
[5]; U87MG xenograft nude mice, gamma counting, n = 3, mean ± SD
  tumor uptake, biodistribution, 24 h post injection: 2.56±0.40 %ID/g
[5]; U87MG xenograft nude mice, tail vein ∼50–100 µCi, gamma counting, n = 3, mean ± SD
  tumor uptake, biodistribution, 1 h post injection: 3.92±0.70 %ID/g
[5]; co-injection of 1000-fold molar excess of unlabeled c(RGDyK) (330 µg), n = 3, p<0.05
  tumor uptake, biodistribution, 1 h post injection, blocked: 0.66±0.17 %ID/g
[6]; U87MG xenograft mice, tail vein 200–400 µCi, liver homogenate in DMF, reversed-phase HPLC and gamma counting
  intact radiotracer recoverable from liver, 1 h post injection: < 40%
[6]; U87MG xenograft mice, tail vein 200–400 µCi, tumor homogenate in DMF, reversed-phase HPLC and gamma counting
  intact radiotracer recoverable from tumor, 1 h post injection: < 40%
[6]; kidney homogenate, radio-HPLC, result in words
  metabolic stability, kidneys, 1 h post injection: a hydrophilic metabolite (or free copper) is responsible for the majority of the radioactive signal
[6]; urine samples, radio-HPLC, result in words
  metabolic stability, urine, 1 h post injection: intact knottin radiotracer is excreted through the bladder
[7]
  tumor uptake, 1 h post injection: 0.82±0.05 %ID/g

## CSCC[C@@H]1NC(=O)[C@H](CC(=O)O)NC(=O)CNC(=O)[C@H](CCCNC(=N)N)NC(=O)[C@H](C)NC(=O)[C@H](CCC(=O)O)NC(=O)[C@H](CCCNC(=N)N)NC(=O)[C@@H]2CSSC[C@@H]3NC(=O)[C@H](CO)NC(=O)[C@H]([C@@H](C)O)NC(=O)[C@@H]4CCCN4C(=O)[C@H](C)NC(=O)[C@H](Cc4c[nH]c5ccccc45)NC(=O)[C@H](CC(=O)O)NC(=O)CNC(=O)[C@H](CCCNC(=N)N)NC(=O)CNC(=O)[C@H](CCC(N)=O)NC(=O)[C@@H]4CCCN4C(=O)[C@@H](NC(=O)CNC(=O)CN4CCN(CC(=O)O)CCN(CC(=O)O)CCN(CC(=O)O)CC4)CSSC[C@H](NC(=O)CNC(=O)[C@H](C)NC(=O)[C@H](CC(C)C)NC(=O)[C@H](CSSC[C@@H](C(=O)NCC(N)=O)NC(=O)[C@H]([C@@H](C)O)NC(=O)[C@H](CCCNC(=N)N)NC(=O)[C@@H]4CCCN4C1=O)NC(=O)[C@H](CC(=O)O)NC(=O)[C@H](CO)NC(=O)[C@H](CC(=O)O)NC(=O)[C@H](CCC(N)=O)NC(=O)[C@H](CO)NC3=O)C(=O)N[C@@H](C(C)C)C(=O)N2 [DOTA-3-4A] ({DOTA}-GCPQGRGDWAPTSCSQDSDCLAGCVCREARGDMPRTCG-NH2; disulfide 2-24, 14-26, 20-37)
[1]
  IC50: 8 ± 1 nM

## c(RGDyK)
[8]
  IC50: 203 ± 32 nM
